{"source": "patent US7709240B2", "about": "“AMP deaminase originating streptomyces and utilization thereof” (Amano Enzyme Inc., priority 2004, dated 2010)", "key": {"[1]": {"assay": "Thermostability of crude enzyme solutions / culture supernatant: residual AMP deaminase activity after 30 minutes", "type": "physicochemical", "conditions": "enzyme solution or culture supernatant treated 30 minutes at 30-75° C., pH 5.6", "experimental": "By using the decrease of OD265 at the time of reaction as an index, the enzyme activity was measured. To 1.5 ml of solution obtained by mixing 0.017M 5′ AMP-2Na and 1/15M phosphate buffer solution (pH 5.6) at the ratio of 1:2, 0.5 ml of sample solution was added so as to obtain a reaction solution, which was reacted at 37° C. for 15 minutes. Then, 2% perchloric acid solution was added so as to stop the reaction and 100 μl of the solution was taken out. Water was added to the solution so that the total amount was 5 ml. Then, OD265 was measured. The value similarly measured at reaction time of 0 minute was defined as a blank. Under the above-mentioned conditions, a case where an absorbance difference is reduced by 0.001 during 60 minutes was defined as one unit. […]\n(§1) Then, in the genus Streptomyces in the stored strains of Amano Enzyme Inc., screening of AMP deaminase producing strain was carried out. […] Furthermore, the residual activity was measured when the activity obtained when treatment was not carried out was defined as 100%. […]\nThe thermostability of AMP deaminase produced by transformant (SAD-1) was measured. Culture supernatant of SAD-1 prepared by the above-mentioned method was treated at a predetermined temperature, and the residual AMP deaminase activity was measured (pH 5.6). […]"}, "[2]": {"assay": "Relation between reaction temperature and activity of purified enzyme", "type": "biochemical", "conditions": "reaction temperature 75° C.; activity at 65° C. = 100%", "experimental": "By using the decrease of OD265 at the time of reaction as an index, the enzyme activity was measured. To 1.5 ml of solution obtained by mixing 0.017M 5′ AMP-2Na and 1/15M phosphate buffer solution (pH 5.6) at the ratio of 1:2, 0.5 ml of sample solution was added so as to obtain a reaction solution, which was reacted at 37° C. for 15 minutes. Then, 2% perchloric acid solution was added so as to stop the reaction and 100 μl of the solution was taken out. Water was added to the solution so that the total amount was 5 ml. Then, OD265 was measured. The value similarly measured at reaction time of 0 minute was defined as a blank. Under the above-mentioned conditions, a case where an absorbance difference is reduced by 0.001 during 60 minutes was defined as one unit.\nThe relation between the reaction temperature and activity of the obtained purified enzyme was examined. […] As is apparent from the graph of FIG. 7 (a), high activity is observed in the wide range from 40° C. to 70° C. Furthermore, even in the case where the reaction temperature is 75° C., about 50% activity is found. Thus, it is shown that the enzyme acts favorably under the wide range of temperatures."}, "[3]": {"assay": "Feasibility test 1: nuclease and deaminase treatment of yeast lysate carried out independently", "conditions": "after nuclease treatment; deaminase at 50° C., pH 6, 5 hours", "experimental": "In test 1, similar to the current production method, treatment with nuclease and treatment with deaminase were carried out independently. Specifically, the treatment was carried out by the following procedure and the IMP conversion rate was calculated. Firstly, nuclease “AMANO” G (Amano Enzyme Inc., 0.1% w/w yeast solid) was added to yeast lysate (YL-15, 0.2%) and they were reacted with each other under the conditions at a temperature of 70° C. and pH 5 for 3 hours. Then, “Deamizyme (50,000 u/mg product) (trade name of Amano Enzyme Inc., 0.01 to 0.04% w/w yeast solid)” that is an AMP deaminase agent derived from the test enzyme (Aspergillus melleus), or a crude enzyme solution prepared from Streptomyces murinus was added and reacted with each other under the conditions at a temperature of 50° C. and pH 6 for 5 hours. Then, the reacted product was heat treated, and then subjected to HPLC analysis. Note here that added amount of AMP deaminase derived from Streptomyces murinus was set so that the activity value thereof became the same as that of “Deamizyme (50,000 u/mg product)” (trade name, Amano Enzyme Inc.)"}, "[4]": {"assay": "Feasibility test 2: nuclease and deaminase treatment of yeast lysate carried out simultaneously", "conditions": "simultaneously with nuclease, 70° C., pH5, 3 hours or 5 hours", "experimental": "In test 2, treatment with nuclease and treatment with deaminase were carried out simultaneously. Specifically, the treatment was carried out by the following procedure and the IMP conversion rate was calculated. Firstly, nuclease “AMANO” G (Amano Enzyme Inc., 0.1% w/w yeast solid) and “Deamizyme (50,000 units) (trade name of Amano Enzyme Inc., 0.01 to 0.04% w/w yeast solid)” that is an AMP deaminase agent derived from the test enzyme (Aspergillus melleus) or a crude enzyme solution prepared by using Streptomyces murinus were added to yeast lysate (YL-15, 0.2%) and they were reacted with yeast lysate under the conditions at a temperature of 70° C. and pH5 for a predetermined time (3 hours or 5 hours). Then, the reacted product was heat treated, and then subjected to HPLC analysis. Note here that added amount of AMP deaminase derived from Streptomyces murinus was set so that the activity value thereof became the same as that of “Deamizyme (50,000 u/mg product)” (trade name, Amano Enzyme Inc.)"}, "Substrate specificity [5]": {"assay": "Substrate specificity", "type": "biochemical", "description": "It is reported that adenosine deaminase derived from Streptomyces aureofaciens has a wide range of substrate property, for example, catalytic ability of AMP (non-patent document 2). Taken this into consideration, in order to confirm whether deaminase derived from Streptomyces murinus obtained in the above-mentioned method is AMP-deaminase or adenosine-deaminase, the substrate specificity was investigated. Note here that the relative activity, when the enzyme activity with respect to 5′ AMP is defined as 100% is represented. […] In particular, the enzyme acted on 5′dAMP, ADP and ATP favorably. […] Furthermore, it was determined that the enzyme was able to be employed preferably in a reaction using 5′dAMP, ADP and ATP as a substrate.\nas §1\nIn order to determine whether the deaminase derived from transformant (SAD-1) obtained as mentioned above was AMP deaminase or Adenosine-deaminase, the substrate specificity was investigated. […] Furthermore, it was determined that the enzyme can be preferably used with respect to the reaction using 5′-dAMP, ADP and ATP as a substrate."}, "Substrate specificity [6]": {"assay": "Substrate specificity", "type": "biochemical", "remark": "listed apart in the source"}}, "data": [{"molecule": "AMP deaminase derived from Streptomyces murinus: thermostable AMP deaminase enzyme produced by Streptomyces murinus IFO14802; amino acid sequence SEQ ID NO: 1 (protein, listed as Streptomyces murinus) APPPRQATAAEARTDAYLRSVKDRPAALRAFFRQLPKGGDLHNHLSGAVNTDYLIELAAEDGLCIDATMTAVPSPCGPGTRPAADARTDRAFHDAIVRAWSMQDFPPDENGHDHFFDTFGKFGEVTWRHRGKLLAQVADTVVANNQSYLETMVTPASDGAKQLADQVGWDADLTALHRKLAAGGKLDKLVADARKEADDGDAEFRATEHCGTAKARPACGLTVRWISQASRGSSPVRVFTQLDLGMRLAEADSRFVAVNLVQPEDWDSSLENYSLQMRMVGYLRTVYPKAHVTLHAGELWPGLVKPEALKFHIAEAVDIAHTQRVGHGVDLVHEDNWQRTARTMAARQIAVEVPFSSNAQILGVKGAEHPFTTYRRYGVPVVLATDDPGVSRIDISHEYQYAAATYGLGYPELKDLARASLQYAFLPGASLWQGNPTAQGYHPVAACRAERPGQPVHSAACRRLLDGSARARLEWRQEAAFAAFERAHARG", "values": [{"measurement": "thermostability (residual AMP deaminase activity)", "setting": "[1]", "result": "extremely excellent"}, {"measurement": "relative activity", "setting": "[2]", "result": "about 50%"}, {"measurement": "IMP conversion rate compared with AMP deaminase derived from Aspergillus melleus", "setting": "[3]", "result": "equivalent"}, {"measurement": "IMP production", "setting": "[4]", "result": "IMP was produced"}, {"measurement": "action on adenosine as fraction of the action on 5′-AMP", "setting": "Substrate specificity [5]", "result": "1/10"}, {"measurement": "action on substrate Adenosine", "setting": "Substrate specificity [5]; activity with respect to 5′ AMP = 100%", "result": "also acted on and weak"}, {"measurement": "action on substrate 5′-GMP", "setting": "Substrate specificity [6]", "result": "did not act on"}]}]}
